Results published in IntAct's records for PubMed 31515488.

B1: Barrier-to-autointegration factor (Homo sapiens), O75531 (parent)
chain: MTTSQKHRDFVAEPMGEKPVGSLAGIGEVLGKKLEERGFDKAYVVLGQFLVLKKDEDLFREWLKDTCGANAKQSRDCFGCLREWCDAFL
partner: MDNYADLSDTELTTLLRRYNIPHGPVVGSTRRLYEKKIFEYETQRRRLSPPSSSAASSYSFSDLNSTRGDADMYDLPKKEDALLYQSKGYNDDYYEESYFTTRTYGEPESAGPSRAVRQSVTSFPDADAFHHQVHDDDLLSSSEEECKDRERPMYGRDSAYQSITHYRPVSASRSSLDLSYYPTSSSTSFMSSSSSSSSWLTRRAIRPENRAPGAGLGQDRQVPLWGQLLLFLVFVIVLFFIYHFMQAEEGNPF
B2: Isoform 1 of Myotubularin-related protein 9 (Homo sapiens), Q96QG7-1 (parent)
chain: MEFAELIKTPRVDNVVLHRPFYPAVEGTLCLTGHHLILSSRQDNTEELWLLHSNIDAIDKRFVGSLGTIIIKCKDFRIIQLDIPGMEECLNIASSIEALSTLDSITLMYPFFYRPMFEVIEDGWHSFLPEQEFELYSSATSEWRLSYVNKEFAVCPSYPPIVTVPKSIDDEALRKVATFRHGGRFPVLSYYHKKNGMVIMRSGQPLTGTNGRRCKEDEKLINATLRAGKRGYIIDTRSLNVAQQTRAKGGGFEQEAHYPQWRRIHKSIERYHILQESLIKLVEACNDQTHNMDRWLSKLEASNWLTHIKEILTTACLAAQCIDREGASILIHGTEGTDSTLQVTSLAQIILEPRSRTIRGFEALIEREWLQAGHPFQQRCAQSAYCNTKQKWEAPVFLLFLDCVWQILRQFPCSFEFNENFLIMLFEHAYASQFGTFLGNNESERCKLKLQQKTMSLWSWVNQPSELSKFTNPLFEANNLVIWPSVAPQSLPLWEGIFLRWNRSSKYLDEAYEEMVNIIEYNKELQAKVNILRRQLAELETEDGMQESP
B3: RNA-binding protein 15 (Homo sapiens), Q96T37-3 (parent)
chain: MRTAGRDPVPRRSPRWRRAVPLCETSAGRRVTQLRGDDLRRPATMKGKERSPVKAKRSRGGEDSTSRGERSKKLGGSGGSNGSSSGKTDSGGGSRRSLHLDKSSSRGGSREYDTGGGSSSSRLHSYSSPSTKNSSGGGESRSSSRGGGGESRSSGAASSAPGGGDGAEYKTLKISELGSQLSDEAVEDGLFHEFKRFGDVSVKISHLSGSGSGDERVAFVNFRRPEDARAAKHARGRLVLYDRPLKIEAVYVSRRRSRSPLDKDTYPPSASVVGASVGGHRHPPGGGGGQRSLSPGGAALGYRDYRLQQLALGRLPPPPPPPLPRDLERERDYPFYERVRPAYSLEPRVGAGAGAAPFREVDEISPEDDQRANRTLFLGNLDITVTESDLRRAFDRFGVITEVDIKRPSRGQTSTYGFLKFENLDMSHRAKLAMSGKIIIRNPIKIGYGKATPTTRLWVGGLGPWVPLAALAREFDRFGTIRTIDYRKGDSWAYIQYESLDAAHAAWTHMRGFPLGGPDRRLRVDFADTEHRYQQQYLQPLPLTHYELVTDAFGHRAPDPLRGARDRTPPLLYRDRDRDLYPDSDWVPPPPPVRERSTRTAATSVPAYEPLDSLDRRRDGWSLDRDRGDRDLPSSRDQPRKRRLPEESGGRHLDRSPESDRPRKRHCAPSPDRSPELSSSRDRYNSDNDRSSRLLLERPSPIRDRRGSLEKSQGDKRDRKNSASAERDRKHRTTAPTEGKSPLKKEDRSDGSAPSTSTASSKLKSPSQKQDGGTAPVASASPKLCLAWQGMLLLKNSNFPSNMHLLQGDLQVASSLLVEGSTGGKVAQLKITQRLRLDQPKLDEVTRRIKVAGPNGYAILLAVPGSSDSRSSSSSAASDTATSTQRPLRNLVSYLKQKQAAGVISLPVGGNKDKENTGVLHAFPPCEFSQQFLDSPAKALAKSEEDYLVMIIVRAKLVEQRMKIWNSKL
B4: Septin-12 (Homo sapiens), Q8IYM1 (parent)
chain: MDPLRRSPSPCLSSQPSSPSTPPCEMLGPVGIEAVLDQLKIKAMKMGFEFNIMVVGQSGLGKSTMVNTLFKSKVWKSNPPGLGVPTPQTLQLHSLTHVIEEKGVKLKLTVTDTPGFGDQINNDNCWDPILGYINEQYEQYLQEEILITRQRHIPDTRVHCCVYFVPPTGHCLRPLDIEFLQRLCRTVNVVPVIARADSLTMEEREAFRRRIQQNLRTHCIDVYPQMCFDEDINDKILNSKLRDRIPFAVVGADQEHLVNGRCVLGRKTKWGIIEVENMAHCEFPLLRDLLIRSHLQDLKDITHNIHYENYRVIRLNESHLLPRGPGWVNLAPASPGQLTTPRTFKVCRGAHDDSDDEF
partner: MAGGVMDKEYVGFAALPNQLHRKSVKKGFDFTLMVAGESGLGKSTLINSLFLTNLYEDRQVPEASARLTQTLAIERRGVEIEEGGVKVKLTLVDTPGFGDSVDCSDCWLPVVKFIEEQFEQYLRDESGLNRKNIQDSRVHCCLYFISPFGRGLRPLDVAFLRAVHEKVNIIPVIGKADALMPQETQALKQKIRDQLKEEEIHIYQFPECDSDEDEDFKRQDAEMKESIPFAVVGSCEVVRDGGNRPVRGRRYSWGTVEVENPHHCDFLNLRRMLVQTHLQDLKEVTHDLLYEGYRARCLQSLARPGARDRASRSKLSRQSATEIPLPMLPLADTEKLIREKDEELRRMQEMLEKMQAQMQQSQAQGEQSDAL

Variants of: B1
Details: with emd_human EMD

Variant	effect of a mutation on the interaction
MTTSQKHRDFVTEPMGEKPVGSLAGIGEVLGKKLEERGFDKAYVVLGQFLVLKKDEDLFREWLKDTCGANAKQSRDCFGCLREWCDAFL [A12T]	with no effect

Variants of: B2
Details: with emil1_human EMILIN1, Q9Y6C2
Chain of emil1_human EMILIN1, Q9Y6C2 (Q9Y6C2 whole entry): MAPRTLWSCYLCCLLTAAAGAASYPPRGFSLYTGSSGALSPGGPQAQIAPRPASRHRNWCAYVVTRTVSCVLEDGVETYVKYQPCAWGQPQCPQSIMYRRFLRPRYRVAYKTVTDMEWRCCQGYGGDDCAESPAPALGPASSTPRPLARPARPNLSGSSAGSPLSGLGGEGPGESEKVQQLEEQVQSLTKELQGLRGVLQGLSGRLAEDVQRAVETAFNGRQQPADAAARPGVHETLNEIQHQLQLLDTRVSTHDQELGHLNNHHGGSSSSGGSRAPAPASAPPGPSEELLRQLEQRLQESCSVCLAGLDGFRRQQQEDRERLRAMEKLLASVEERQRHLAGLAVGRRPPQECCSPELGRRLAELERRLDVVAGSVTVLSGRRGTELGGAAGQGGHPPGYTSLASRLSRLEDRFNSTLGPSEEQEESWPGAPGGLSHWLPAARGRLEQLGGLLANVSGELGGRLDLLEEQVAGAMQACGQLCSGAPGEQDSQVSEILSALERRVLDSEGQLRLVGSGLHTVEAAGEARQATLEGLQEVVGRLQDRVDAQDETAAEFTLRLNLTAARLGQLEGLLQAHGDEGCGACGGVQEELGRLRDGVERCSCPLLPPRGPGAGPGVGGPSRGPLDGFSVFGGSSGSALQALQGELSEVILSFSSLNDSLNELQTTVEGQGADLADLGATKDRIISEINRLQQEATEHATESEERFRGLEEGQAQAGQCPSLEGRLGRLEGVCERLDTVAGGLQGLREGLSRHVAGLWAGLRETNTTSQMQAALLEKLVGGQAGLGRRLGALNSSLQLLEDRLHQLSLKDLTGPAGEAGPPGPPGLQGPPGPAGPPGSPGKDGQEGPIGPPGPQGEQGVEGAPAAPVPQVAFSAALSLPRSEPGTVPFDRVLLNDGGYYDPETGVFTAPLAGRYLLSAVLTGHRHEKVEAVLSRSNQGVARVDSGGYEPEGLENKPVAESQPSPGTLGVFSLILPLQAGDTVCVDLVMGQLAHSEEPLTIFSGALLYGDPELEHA

Variant	effect of a mutation on the interaction
MEFAELIKTPRVDNVVLHRPFYPAVEGTLCLTGHHLILSSRQDNTEELWLLHSNIDAIDKRFVGSLGTIIIKCKDFRIIQLDIPGMEECLNIASSIEALSTLDSITLMYPFFYRPMFEVIEDGWHSILPEQEFELYSSATSEWRLSYVNKEFAVCPSYPPIVTVPKSIDDEALRKVATFRHGGRFPVLSYYHKKNGMVIMRSGQPLTGTNGRRCKEDEKLINATLRAGKRGYIIDTRSLNVAQQTRAKGGGFEQEAHYPQWRRIHKSIERYHILQESLIKLVEACNDQTHNMDRWLSKLEASNWLTHIKEILTTACLAAQCIDREGASILIHGTEGTDSTLQVTSLAQIILEPRSRTIRGFEALIEREWLQAGHPFQQRCAQSAYCNTKQKWEAPVFLLFLDCVWQILRQFPCSFEFNENFLIMLFEHAYASQFGTFLGNNESERCKLKLQQKTMSLWSWVNQPSELSKFTNPLFEANNLVIWPSVAPQSLPLWEGIFLRWNRSSKYLDEAYEEMVNIIEYNKELQAKVNILRRQLAELETEDGMQESP [F127I]	with no effect

Variants of: B2
Details: with lnx1_human LNX1, Q8TBB1
Chain of lnx1_human LNX1, Q8TBB1 (Q8TBB1 whole entry): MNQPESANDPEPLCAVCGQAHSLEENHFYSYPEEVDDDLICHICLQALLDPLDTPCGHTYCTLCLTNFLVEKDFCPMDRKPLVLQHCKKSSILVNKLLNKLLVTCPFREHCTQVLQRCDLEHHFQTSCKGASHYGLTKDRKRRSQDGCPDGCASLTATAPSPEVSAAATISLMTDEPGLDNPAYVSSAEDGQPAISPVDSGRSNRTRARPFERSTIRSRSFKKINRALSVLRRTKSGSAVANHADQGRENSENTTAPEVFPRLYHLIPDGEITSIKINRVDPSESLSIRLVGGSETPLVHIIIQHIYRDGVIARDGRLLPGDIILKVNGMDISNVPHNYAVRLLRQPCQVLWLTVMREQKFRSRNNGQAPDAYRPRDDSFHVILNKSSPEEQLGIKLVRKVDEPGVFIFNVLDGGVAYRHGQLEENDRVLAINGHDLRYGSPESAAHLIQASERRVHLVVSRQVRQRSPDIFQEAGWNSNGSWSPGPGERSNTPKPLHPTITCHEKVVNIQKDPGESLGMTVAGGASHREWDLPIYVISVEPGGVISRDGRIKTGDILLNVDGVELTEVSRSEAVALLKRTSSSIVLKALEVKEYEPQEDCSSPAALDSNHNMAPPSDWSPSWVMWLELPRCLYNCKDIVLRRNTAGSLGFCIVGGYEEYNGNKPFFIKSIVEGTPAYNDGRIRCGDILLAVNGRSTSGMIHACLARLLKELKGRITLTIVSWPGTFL

Variant	effect of a mutation on the interaction
MEFAELIKTPRVDNVVLHRPFYPAVEGTLCLTGHHLILSSRQDNTEELWLLHSNIDAIDKRFVGSLGTIIIKCKDFRIIQLDIPGMEECLNIASSIEALSTLDSITLMYPFFYRPMFEVIEDGWHSILPEQEFELYSSATSEWRLSYVNKEFAVCPSYPPIVTVPKSIDDEALRKVATFRHGGRFPVLSYYHKKNGMVIMRSGQPLTGTNGRRCKEDEKLINATLRAGKRGYIIDTRSLNVAQQTRAKGGGFEQEAHYPQWRRIHKSIERYHILQESLIKLVEACNDQTHNMDRWLSKLEASNWLTHIKEILTTACLAAQCIDREGASILIHGTEGTDSTLQVTSLAQIILEPRSRTIRGFEALIEREWLQAGHPFQQRCAQSAYCNTKQKWEAPVFLLFLDCVWQILRQFPCSFEFNENFLIMLFEHAYASQFGTFLGNNESERCKLKLQQKTMSLWSWVNQPSELSKFTNPLFEANNLVIWPSVAPQSLPLWEGIFLRWNRSSKYLDEAYEEMVNIIEYNKELQAKVNILRRQLAELETEDGMQESP [F127I]	with no effect

Variants of: B3
Details: with nav2_human NAV2, Q8IVL1
Chain of nav2_human NAV2, Q8IVL1 (Q8IVL1 whole entry): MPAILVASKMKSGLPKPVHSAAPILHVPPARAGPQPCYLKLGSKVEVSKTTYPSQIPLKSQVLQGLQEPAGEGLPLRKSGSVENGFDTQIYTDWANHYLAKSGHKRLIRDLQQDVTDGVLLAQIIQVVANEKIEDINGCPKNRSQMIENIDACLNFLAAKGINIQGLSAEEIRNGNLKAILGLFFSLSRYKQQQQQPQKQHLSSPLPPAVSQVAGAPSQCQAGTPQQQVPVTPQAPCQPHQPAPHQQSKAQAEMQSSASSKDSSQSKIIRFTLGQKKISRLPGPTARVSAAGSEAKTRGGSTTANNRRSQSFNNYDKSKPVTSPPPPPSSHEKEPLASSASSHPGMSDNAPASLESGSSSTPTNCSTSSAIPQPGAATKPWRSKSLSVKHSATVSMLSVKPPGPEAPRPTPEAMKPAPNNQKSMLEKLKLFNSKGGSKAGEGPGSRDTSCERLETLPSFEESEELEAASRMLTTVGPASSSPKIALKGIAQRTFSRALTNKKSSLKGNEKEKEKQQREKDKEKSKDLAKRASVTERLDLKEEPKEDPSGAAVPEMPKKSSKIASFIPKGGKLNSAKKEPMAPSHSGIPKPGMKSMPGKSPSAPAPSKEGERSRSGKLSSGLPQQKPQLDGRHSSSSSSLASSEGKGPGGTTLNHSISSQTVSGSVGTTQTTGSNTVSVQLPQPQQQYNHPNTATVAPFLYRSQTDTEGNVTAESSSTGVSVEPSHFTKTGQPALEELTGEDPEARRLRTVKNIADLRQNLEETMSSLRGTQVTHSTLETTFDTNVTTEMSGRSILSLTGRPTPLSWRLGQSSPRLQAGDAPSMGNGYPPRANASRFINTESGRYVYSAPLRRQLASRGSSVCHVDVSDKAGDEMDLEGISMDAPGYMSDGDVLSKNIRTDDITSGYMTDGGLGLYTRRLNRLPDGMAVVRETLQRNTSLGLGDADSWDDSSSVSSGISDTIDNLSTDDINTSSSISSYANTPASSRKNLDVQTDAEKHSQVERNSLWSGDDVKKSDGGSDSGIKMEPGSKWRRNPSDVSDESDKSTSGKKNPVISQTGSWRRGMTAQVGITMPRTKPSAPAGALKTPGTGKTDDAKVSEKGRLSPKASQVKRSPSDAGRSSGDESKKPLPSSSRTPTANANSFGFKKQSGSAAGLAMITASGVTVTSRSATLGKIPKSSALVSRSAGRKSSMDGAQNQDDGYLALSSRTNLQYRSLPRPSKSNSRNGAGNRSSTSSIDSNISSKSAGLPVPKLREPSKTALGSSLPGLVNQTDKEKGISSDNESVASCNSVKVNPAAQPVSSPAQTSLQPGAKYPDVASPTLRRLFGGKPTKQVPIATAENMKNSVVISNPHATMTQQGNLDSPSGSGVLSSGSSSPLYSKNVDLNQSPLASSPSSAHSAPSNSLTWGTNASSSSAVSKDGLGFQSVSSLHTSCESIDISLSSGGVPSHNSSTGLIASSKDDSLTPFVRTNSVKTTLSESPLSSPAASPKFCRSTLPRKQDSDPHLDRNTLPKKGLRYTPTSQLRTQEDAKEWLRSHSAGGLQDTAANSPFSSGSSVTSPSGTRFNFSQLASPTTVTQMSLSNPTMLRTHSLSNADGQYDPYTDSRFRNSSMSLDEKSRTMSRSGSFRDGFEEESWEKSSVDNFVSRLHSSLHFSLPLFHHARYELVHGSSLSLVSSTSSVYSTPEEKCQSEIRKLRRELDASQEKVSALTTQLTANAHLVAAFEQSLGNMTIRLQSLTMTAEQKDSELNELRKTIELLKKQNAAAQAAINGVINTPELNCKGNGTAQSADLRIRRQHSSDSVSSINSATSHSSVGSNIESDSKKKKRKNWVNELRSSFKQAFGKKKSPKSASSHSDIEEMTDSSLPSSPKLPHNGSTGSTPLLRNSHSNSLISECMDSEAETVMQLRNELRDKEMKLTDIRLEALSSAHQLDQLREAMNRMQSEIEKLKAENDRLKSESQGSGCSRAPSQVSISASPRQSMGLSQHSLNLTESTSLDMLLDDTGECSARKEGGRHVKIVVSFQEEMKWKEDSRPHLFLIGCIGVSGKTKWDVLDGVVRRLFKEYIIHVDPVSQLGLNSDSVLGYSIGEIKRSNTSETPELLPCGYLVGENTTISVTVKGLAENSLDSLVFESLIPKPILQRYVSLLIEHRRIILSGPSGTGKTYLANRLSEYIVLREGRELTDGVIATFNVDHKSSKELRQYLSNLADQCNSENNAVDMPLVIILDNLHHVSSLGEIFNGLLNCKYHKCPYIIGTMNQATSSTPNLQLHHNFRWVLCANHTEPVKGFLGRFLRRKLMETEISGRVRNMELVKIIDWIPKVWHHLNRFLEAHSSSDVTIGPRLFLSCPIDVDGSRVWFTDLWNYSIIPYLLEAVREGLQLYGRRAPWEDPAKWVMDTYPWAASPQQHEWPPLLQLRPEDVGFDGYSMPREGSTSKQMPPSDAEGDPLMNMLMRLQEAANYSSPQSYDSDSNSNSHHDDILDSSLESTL

Variant	effect of a mutation on the interaction
R961Q	disrupting interaction strength

Variants of: B4
Details: with sept1_human SEPTIN1, Q8WYJ6

Variant	effect of a mutation on the interaction
MDPLRRSPSPCLSSQPSSPSTPPCEMLGPVGIEAVLDQLKIKAMKMGFEFNIMVVGQSGLGKSTMVNTLFKSKVWKSNPPGLGVPTPQTLQLHSLTHVIEEKGVKLKLTVTDTPGFGDQINNDNCWDPILGYINEQYEQYLQEEILITRQRHIPDTRVHCCVYFVPPTGHCLRPLDIEFLQRLCRTVNVVPVIARADSLTMEEREAFRRRIQQNLRTHCIDVYPQMCFDEDINDKILNSKLRDRIPFAVVGADQEHLVNGRCDLGRKTKWGIIEVENMAHCEFPLLRDLLIRSHLQDLKDITHNIHYENYRVIRLNESHLLPRGPGWVNLAPASPGQLTTPRTFKVCRGAHDDSDDEF [V263D]	disrupting interaction strength
MDPLRRSPSPCLSSQPSSPSTPPCEMLGPVGIEAVLDQLKIKAMKMGFEFNIMVVGQSGLGKSTMVNTLFKSKVWKSNPPGLGVPTPQTLQLHSLTHVIEEKGVKLKLTVTDTPGFGDQINNDNCWDPILGYINEQYEQYLQEEILITRQRHIPDTRVHCCVYFVPPTGHCLRPLDIEFLQRLCRTVNVVPVIARADSLTMEEQEAFRRRIQQNLRTHCIDVYPQMCFDEDINDKILNSKLRDRIPFAVVGADQEHLVNGRCVLGRKTKWGIIEVENMAHCEFPLLRDLLIRSHLQDLKDITHNIHYENYRVIRLNESHLLPRGPGWVNLAPASPGQLTTPRTFKVCRGAHDDSDDEF [R204Q]	disrupting interaction strength
MDPLRRSPSPCLSSQPSSPSTPPCEMLGPVGIEAVLDQLKIKAMKMGFEFNIMVVGQSGLGKSTMVNTLFKSNVWKSNPPGLGVPTPQTLQLHSLTHVIEEKGVKLKLTVTDTPGFGDQINNDNCWDPILGYINEQYEQYLQEEILITRQRHIPDTRVHCCVYFVPPTGHCLRPLDIEFLQRLCRTVNVVPVIARADSLTMEEREAFRRRIQQNLRTHCIDVYPQMCFDEDINDKILNSKLRDRIPFAVVGADQEHLVNGRCVLGRKTKWGIIEVENMAHCEFPLLRDLLIRSHLQDLKDITHNIHYENYRVIRLNESHLLPRGPGWVNLAPASPGQLTTPRTFKVCRGAHDDSDDEF [K73N]	disrupting interaction strength

Variants of: B4
Details: with sept1_human SEPTIN1, Q8WYJ6
Remark: another data set of the same source

Variant	effect of a mutation on the interaction
MDPLRRSPSPCLSSQPSSPSTPPCEMLGPVGIEAVLDQLKIKAMKMGFEFNIMVVGQSGLGKSTMVNTLFKSKVWKSNPPGLGVPTPQTLQLHSLTHVIEEKGVKLKLTVTDTPGFGDQINNDNCWDPILGYINEQYEQYLQEEILITRQRHIPDTRVHCCVYFVPPTEHCLRPLDIEFLQRLCRTVNVVPVIARADSLTMEEREAFRRRIQQNLRTHCIDVYPQMCFDEDINDKILNSKLRDRIPFAVVGADQEHLVNGRCVLGRKTKWGIIEVENMAHCEFPLLRDLLIRSHLQDLKDITHNIHYENYRVIRLNESHLLPRGPGWVNLAPASPGQLTTPRTFKVCRGAHDDSDDEF [G169E]	disrupting interaction strength
